In data set [1] the target is T1, von Willebrand factor (VWF) (Homo sapiens, UniProt P04275 P04275:764-2813). The data set is described as follows: filter; Bmax 86%; 2 mM CaCl2, 37 C. The settings on record: Haematologic Technologies Inc, label: 5'-32P. The protocol: (§1) Affinity constants (Kd values) were determined using double-filter nitrocellulose filter binding assays (Rusconi et al, Thromb. Haemost. $4:841-848 (2000)). All binding studies were performed in binding buffer F (20 mM HEPES, pH 7.4, 150 mM NaCl, 2 mM CaCl₂, and 0.01% BSA) at 37° C. Human purified VWF (factor VIII free) was purchased from Haematologic Technologies Inc. (Essex Junction, Vt.) and used in the double-filter nitrocellulose filter binding assay to determine the Kd of the aptamers. Briefly, RNA were end-labeled at the 5′ end with T4 polynucleotide kinase (New England Biolabs, Beverly, Mass.) and [γ³²P] ATP (Amersham Pharmacia Biotech, Piscataway, N.J.) (Fitzwater and Polisky, Methods Enzymol. 267:275-301 (1996)). End-labeled RNA was diluted in binding buffer F, heat denatured at 65° C. for 5 minutes, and subsequently equilibrated at 37° C. Direct binding was performed by incubating trace ³²P-RNA with varying concentrations of VWF protein in binding buffer F at 37° C. for 5 min. The fraction of the nucleic acid-protein complex which bound to the nitrocellulose membrane was quantified with a phosphorimager (Molecular Dynamics, Sunnyvale, Calif.). Non-specific binding of the radiolabeled nucleic acid was subtracted out of the binding such that only specific binding remained (Wong and Lohman, Proc. Natl. Acad. Sci. USA 90:5428-5432 (1993)).

Data set [2] has as its target T1, von Willebrand factor (VWF). Briefly: filter; Bmax 78%; 2 mM CaCl2, 37 C. The settings on record: Haematologic Technologies Inc, label: 5'-32P. The protocol: as §1
Data set [3] has the same target. Briefly: filter; NB; loop CAGA mutated; 2 mM CaCl2, 37 C. The settings on record: tags: factor VIII free, Haematologic Technologies Inc; label: 5'-32P. The protocol:
as §1

For data set [4] the target is unchanged. Briefly: filter; Bmax 82%; 2 mM CaCl2, 37 C. The settings on record: Haematologic Technologies Inc, label: 5'-32P. The method, then:
as §1

Data set [5] shares this target. The data set is described as follows: filter; Bmax 80%; 2 mM CaCl2, 37 C. The settings on record: Haematologic Technologies Inc, label: 5'-32P. The method, then:
as §1

The target is the same in data set [6]. The data set is described as follows: filter; Bmax 81%; 2 mM CaCl2, 37 C. The conditions noted are these: tags: factor VIII free, Haematologic Technologies Inc; label: 5'-32P. The method, then: as §1
[7] abbreviates: tags: factor VIII free human purified VWF.

B1: T59 vrt9 (ssRNA)
RNA: ACGAACUGCCCUCGAUCGACGCACAGACGU
modifications: rAmCrGmAmAmCfUrGfCfCfCfUmCmGmAmUmCmGrAfCrGfCrAmCmAmGmAfCmGfU-idT
The molecule B1 showed a Kd in data set [1] (tags: factor VIII free) of 1 nM.

B2: T25 vrt16 (ssRNA)
RNA: ACGAACUGCCCUCAGCUACUUUCAUGUUGCUGACGCACAGACGU
modifications: rAfCmGrArAfCfUrGfCfCfCfUfCrArGfCfUrAfCfUfUfUfCrAfUrGfUfUrGfCfUrGrAfCrGfCrAfCrArGrAmCrGfU-idT
Consider B2, for which, in data set [2] (tags: factor VIII free), the affinity, expressed as Kd, was 4.3 nM.

B3: T101 (ssRNA)
RNA: ACGAACUGCCCUCUUUUUUGACGCACCCCCGU
modifications: 2'-F C and U; 2'-OH A and G; 3' idT
B3: in data set [3], the binding result was “no binding”.

B4: T94 vrt6 (ssRNA)
RNA: ACGAACUGCCCUCUUUUUUGACGCACAGACGU
modifications: 2'-F C9,C10,C11,C22,G23,C24,U32; rest 2'-OMe; 3' idT
With B4, the Kd in data set [2] (setting [7]) came out at 42 nM. In other words, the double-digit nanomolar range.

B5: T68 (ssRNA)
RNA: ACGAACUGCCCUCUUAUGACGCACAGACGU
modifications: 2'-F C and U; 2'-OH A and G; 3' idT
With B5, in data set [4] (tags: factor VIII free), binding was characterised by a dissociation constant (Kd) of 16 nM.

B6: DTRI-006 (ssRNA)
RNA: ACGAACUGCCCUCGAUCGACGCACAGACGU
modifications: mAmCmGmAmAmCmUmGfCfCfCmUmCmGmAmUmCmGmAfCrGfCmAmCmAmGmAmCmGfUidT
As for B6, in data set [5] (tags: factor VIII free), binding was put at a Kd of 7 nM.

B7: T59 vrt6 (ssRNA)
RNA: ACGAACUGCCCUCGAUCGACGCACAGACGU
modifications: mAmCmGmAmAmCfUrGfCfCfCfUmCmGmAmUmCmGrAfCrGfCrAmCmAmGmAmCmGfU-idT
B7 returned a Kd in data set [4] (tags: factor VIII free) of 0.5 nM. In other words, the sub-nanomolar range.

B8: T70 (ssRNA)
RNA: ACGAACUGCCCUCAUUAUUGACGCACAGACGU
modifications: 2'-F C and U; 2'-OH A and G; 3' idT
For the molecule B8, binding in data set [6] was put at a Kd of 13 nM.

B9: T87 (ssRNA)
RNA: ACGAACUGCCCUCUUUCAUGACGCACAGACGU
modifications: 2'-F C and U; 2'-OH A and G; 3' idT
Regarding B9, the Kd in data set [1] (tags: factor VIII free) was 11 nM.

B10: T93 vrt4 (ssRNA)
RNA: ACGAACUGCCCUCUAUUUCAUUUGACGCACAGACGU
modifications: 2'-F C9,C10,C11,C26,C28; ribo G27; rest 2'-OMe; 3' idT
For B10, binding in data set [4] (setting [7]) was characterised by a dissociation constant (Kd) of 5.7 nM.

B11: T93 vrt6 (ssRNA)
RNA: ACGAACUGCCCUCUAUUUCAUUUGACGCACAGACGU
modifications: 2'-F C9,C10,C11,C26,G27,C28,U36; rest 2'-OMe; 3' idT
Take B11: the Kd in data set [4] (setting [7]) worked out at 33 nM. Against the preceding molecule, the Kd is about 5.8-fold higher.

B12: T79 vrt1 (ssRNA)
RNA: ACGAACUGCCCUCGAUCGACGCACAGACGUUUUUU
modifications: rAfCrGmAmAmCfUrGfCfCfCfUmCmGmAmUmCmGrAfCrGfCrAmCmAmGmAfCrGfUmUmUmUmUmU-idT
In data set [2] (tags: factor VIII free), B12 had a Kd of 1.9 nM. In other words, the single-digit nanomolar range.

B13: T79 vrt2 (ssRNA)
RNA: ACGAACUGCCCUCGAUCGACGCACAGACGUUUUUU
modifications: mAmCmGmAmAmCmUmGfCfCfCmUmCmGmAmUmCmGmAfCrGfCmAmCmAmGmAmCmGfUmUmUmUmUmU-idT
Consider B13, for which binding in data set [6] was characterised by a dissociation constant (Kd) of 24 nM.

B14: T89 vrt10 (ssRNA)
RNA: ACGAACUGCCCUCGUAUUAUUUCGACGCACAGACGU
modifications: 2'-F G8,C9,C10,C11,A25,C26,G27,C28,A29; rest 2'-OMe; 3' idT
As to B14, in data set [1] (setting [7]), the dissociation constant Kd amounted to 548 nM.

B15: T82 vrt7 (ssRNA)
RNA: ACGAACUGCCCUCGAUCGACGCACAGACGUACCCG
modifications: 2'-F C9,C10,C11,C20,G21,C22; rest 2'-OMe; 3' idT
For B15, the Kd in data set [2] (setting [7]) was 268 nM.

B16: T59 vrt10 (ssRNA)
RNA: ACGAACUGCCCUCGAUCGACGCACAGACGU
modifications: rAfCmGmAmAmCfUrGfCfCfCfUmCmGmAmUmCmGrAfCrGfCrAmCmAmGmAmCrGfU-idT
B16: the Kd in data set [6] is 0.4 nM.

B17: T59 vrt14 (ssRNA)
RNA: ACGAACUGCCCUCGAUCGACGCACAGACGU
modifications: mAmCmGmAmAmCfUrGfCfCfCmUmCmGmAmUmCmGmAfCrGfCrAmCmAmGmAmCmGfU-idT
As to B17, binding in data set [6] was characterised by a dissociation constant (Kd) of 1.7 nM.

B18: T59 (ssRNA)
RNA: ACGAACUGCCCUCGAUCGACGCACAGACGU
modifications: 2'-F C and U; 2'-OH A and G; 3' idT
Molecule B18 returned a Kd in data set [2] (tags: factor VIII free) of 8.8 nM.

B19: T59 vrt8 (ssRNA)
RNA: ACGAACUGCCCUCGAUCGACGCACAGACGU
modifications: mAfCrGmAmAmCfUrGfCfCfCfUmCmGmAmUmCmGrAfCrGfCrAmCmAmGmAfCrGfU-idT
In data set [1] (tags: factor VIII free), B19 returned a dissociation constant (Kd) of 1.8 nM.

B20: T59 vrt19 (ssRNA)
RNA: ACGAACUGCCCUCGAUCGACGCACAGACGU
modifications: mAmCmGmAmAmCmUmGfCfCfCmUmCmGmAmUmCmGmAfCrGfCmAmCmAmGmAmCmGfU-idT
In data set [4] (tags: factor VIII free), B20 yielded a Kd of 5.5 nM.

B21: T59 vrt25 (ssRNA)
RNA: ACGAACUGCCCUCGAUCGACGCACAGACGU
modifications: 2'-F U7,C9,C10,C11,U12,C20,C22,U30; ribo G8,A19; rest 2'-OMe; 3' idT
The molecule B21 gave a Kd in data set [1] (setting [7]) of 76 nM.

B22: T95 (ssRNA)
RNA: ACGAACUGCCCUCUUUUUUUUGACGCACAGACGU
modifications: 2'-F C and U; 2'-OH A and G; 3' idT
As for B22, in data set [6], binding was put at a Kd of 12 nM.

B23: T86 vrt1 (ssRNA)
RNA: ACGAACUGCCCUCGUUUCAUCGACGCACAGACGU
modifications: 2'-F C2,U7,C9,C10,C11,U12,C24,C26,C32,U34; ribo A1,G3,G8,A23,G25,A27,G33; rest 2'-OMe; 3' idT
Take B23: binding in data set [5] (setting [7]) was put at a Kd of 0.9 nM. This counts as sub-nanomolar.

These data come from patent US20190218553, “VON WILLEBRAND FACTOR (VWF)-TARGETING AGENTS AND METHODS OF USING THE SAME” (DUKE UNIVERSITY, published 2019).
